Experiments:
Assay in all cases: IP/MS, LZTR1 wild type-FLAG, U87
DPP9 = DPP9 (human, UniProt Q86TI2 2-863, limits assumed)
Method in brief: (§1)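 Read-out: spectral counts from LC-MS/MS (Orbitrap Fusion) after MaxQuant identification. Variable modifications were Met oxidation, protein N-terminal acetylation and N/Q deamidation.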

ABR = biological target: T1, ABR (human, UniProt Q12979 1-859, limits assumed)
T1 sequence (looked up): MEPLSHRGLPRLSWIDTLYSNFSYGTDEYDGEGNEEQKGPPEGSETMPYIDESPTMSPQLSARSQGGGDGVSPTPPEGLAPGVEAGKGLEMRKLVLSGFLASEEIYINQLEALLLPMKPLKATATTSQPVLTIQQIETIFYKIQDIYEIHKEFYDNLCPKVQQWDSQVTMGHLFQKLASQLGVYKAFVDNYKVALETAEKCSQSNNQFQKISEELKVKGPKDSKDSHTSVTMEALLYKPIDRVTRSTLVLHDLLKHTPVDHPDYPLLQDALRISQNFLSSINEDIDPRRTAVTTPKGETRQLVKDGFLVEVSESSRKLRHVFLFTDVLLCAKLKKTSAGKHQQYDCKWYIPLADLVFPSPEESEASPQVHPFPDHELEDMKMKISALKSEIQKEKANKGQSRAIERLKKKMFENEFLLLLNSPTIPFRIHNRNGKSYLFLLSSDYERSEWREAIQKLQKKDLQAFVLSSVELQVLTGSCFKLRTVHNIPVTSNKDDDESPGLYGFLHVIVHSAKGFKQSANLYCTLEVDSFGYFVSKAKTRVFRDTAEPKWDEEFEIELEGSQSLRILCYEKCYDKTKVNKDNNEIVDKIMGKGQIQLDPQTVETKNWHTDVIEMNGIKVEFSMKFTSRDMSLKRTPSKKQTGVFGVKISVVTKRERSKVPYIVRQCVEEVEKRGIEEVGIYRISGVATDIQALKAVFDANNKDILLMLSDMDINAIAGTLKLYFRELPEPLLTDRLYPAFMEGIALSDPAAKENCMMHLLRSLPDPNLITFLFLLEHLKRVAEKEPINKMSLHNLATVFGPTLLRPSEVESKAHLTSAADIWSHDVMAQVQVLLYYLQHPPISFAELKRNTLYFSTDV
Method in brief: as §1

ELP1 = biological target: T2, ELP1 (human, UniProt O95163 1-1332)
T2 sequence (looked up): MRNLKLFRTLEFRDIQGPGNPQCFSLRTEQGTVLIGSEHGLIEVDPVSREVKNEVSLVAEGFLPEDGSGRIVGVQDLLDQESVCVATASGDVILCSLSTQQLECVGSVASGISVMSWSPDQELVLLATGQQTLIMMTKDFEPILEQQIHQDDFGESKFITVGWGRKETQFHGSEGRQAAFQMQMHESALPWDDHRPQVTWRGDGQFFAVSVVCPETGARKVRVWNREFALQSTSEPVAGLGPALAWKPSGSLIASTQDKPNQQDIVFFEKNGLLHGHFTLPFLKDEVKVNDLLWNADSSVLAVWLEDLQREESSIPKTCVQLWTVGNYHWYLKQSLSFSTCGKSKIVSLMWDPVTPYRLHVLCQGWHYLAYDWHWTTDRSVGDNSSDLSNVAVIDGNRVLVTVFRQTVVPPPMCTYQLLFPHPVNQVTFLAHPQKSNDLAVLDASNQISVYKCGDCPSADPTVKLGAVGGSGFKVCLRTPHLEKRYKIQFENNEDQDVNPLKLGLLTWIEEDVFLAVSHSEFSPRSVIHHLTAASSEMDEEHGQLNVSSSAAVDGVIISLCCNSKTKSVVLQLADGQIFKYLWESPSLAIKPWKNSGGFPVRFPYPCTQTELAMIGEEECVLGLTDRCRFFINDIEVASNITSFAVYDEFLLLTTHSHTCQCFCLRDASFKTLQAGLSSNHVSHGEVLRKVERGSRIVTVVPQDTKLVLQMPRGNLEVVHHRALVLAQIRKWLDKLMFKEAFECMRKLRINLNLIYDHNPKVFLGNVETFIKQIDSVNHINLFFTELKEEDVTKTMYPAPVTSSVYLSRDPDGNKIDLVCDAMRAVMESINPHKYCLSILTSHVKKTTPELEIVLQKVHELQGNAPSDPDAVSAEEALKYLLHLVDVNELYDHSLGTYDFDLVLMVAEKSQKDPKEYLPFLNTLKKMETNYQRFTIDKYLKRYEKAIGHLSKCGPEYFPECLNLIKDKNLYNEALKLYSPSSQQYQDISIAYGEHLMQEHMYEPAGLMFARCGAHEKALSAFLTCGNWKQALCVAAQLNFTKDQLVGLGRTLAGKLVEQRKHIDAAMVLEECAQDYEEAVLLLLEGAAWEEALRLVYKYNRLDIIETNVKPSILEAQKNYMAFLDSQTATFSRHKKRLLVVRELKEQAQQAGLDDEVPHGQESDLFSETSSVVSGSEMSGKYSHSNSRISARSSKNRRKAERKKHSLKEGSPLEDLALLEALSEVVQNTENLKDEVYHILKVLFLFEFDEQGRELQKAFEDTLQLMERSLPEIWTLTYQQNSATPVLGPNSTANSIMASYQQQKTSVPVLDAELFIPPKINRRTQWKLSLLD
Method in brief: as §1

HTT = HTT (human, UniProt P42858 1-3142)
Sequence of HTT (P42858 whole entry): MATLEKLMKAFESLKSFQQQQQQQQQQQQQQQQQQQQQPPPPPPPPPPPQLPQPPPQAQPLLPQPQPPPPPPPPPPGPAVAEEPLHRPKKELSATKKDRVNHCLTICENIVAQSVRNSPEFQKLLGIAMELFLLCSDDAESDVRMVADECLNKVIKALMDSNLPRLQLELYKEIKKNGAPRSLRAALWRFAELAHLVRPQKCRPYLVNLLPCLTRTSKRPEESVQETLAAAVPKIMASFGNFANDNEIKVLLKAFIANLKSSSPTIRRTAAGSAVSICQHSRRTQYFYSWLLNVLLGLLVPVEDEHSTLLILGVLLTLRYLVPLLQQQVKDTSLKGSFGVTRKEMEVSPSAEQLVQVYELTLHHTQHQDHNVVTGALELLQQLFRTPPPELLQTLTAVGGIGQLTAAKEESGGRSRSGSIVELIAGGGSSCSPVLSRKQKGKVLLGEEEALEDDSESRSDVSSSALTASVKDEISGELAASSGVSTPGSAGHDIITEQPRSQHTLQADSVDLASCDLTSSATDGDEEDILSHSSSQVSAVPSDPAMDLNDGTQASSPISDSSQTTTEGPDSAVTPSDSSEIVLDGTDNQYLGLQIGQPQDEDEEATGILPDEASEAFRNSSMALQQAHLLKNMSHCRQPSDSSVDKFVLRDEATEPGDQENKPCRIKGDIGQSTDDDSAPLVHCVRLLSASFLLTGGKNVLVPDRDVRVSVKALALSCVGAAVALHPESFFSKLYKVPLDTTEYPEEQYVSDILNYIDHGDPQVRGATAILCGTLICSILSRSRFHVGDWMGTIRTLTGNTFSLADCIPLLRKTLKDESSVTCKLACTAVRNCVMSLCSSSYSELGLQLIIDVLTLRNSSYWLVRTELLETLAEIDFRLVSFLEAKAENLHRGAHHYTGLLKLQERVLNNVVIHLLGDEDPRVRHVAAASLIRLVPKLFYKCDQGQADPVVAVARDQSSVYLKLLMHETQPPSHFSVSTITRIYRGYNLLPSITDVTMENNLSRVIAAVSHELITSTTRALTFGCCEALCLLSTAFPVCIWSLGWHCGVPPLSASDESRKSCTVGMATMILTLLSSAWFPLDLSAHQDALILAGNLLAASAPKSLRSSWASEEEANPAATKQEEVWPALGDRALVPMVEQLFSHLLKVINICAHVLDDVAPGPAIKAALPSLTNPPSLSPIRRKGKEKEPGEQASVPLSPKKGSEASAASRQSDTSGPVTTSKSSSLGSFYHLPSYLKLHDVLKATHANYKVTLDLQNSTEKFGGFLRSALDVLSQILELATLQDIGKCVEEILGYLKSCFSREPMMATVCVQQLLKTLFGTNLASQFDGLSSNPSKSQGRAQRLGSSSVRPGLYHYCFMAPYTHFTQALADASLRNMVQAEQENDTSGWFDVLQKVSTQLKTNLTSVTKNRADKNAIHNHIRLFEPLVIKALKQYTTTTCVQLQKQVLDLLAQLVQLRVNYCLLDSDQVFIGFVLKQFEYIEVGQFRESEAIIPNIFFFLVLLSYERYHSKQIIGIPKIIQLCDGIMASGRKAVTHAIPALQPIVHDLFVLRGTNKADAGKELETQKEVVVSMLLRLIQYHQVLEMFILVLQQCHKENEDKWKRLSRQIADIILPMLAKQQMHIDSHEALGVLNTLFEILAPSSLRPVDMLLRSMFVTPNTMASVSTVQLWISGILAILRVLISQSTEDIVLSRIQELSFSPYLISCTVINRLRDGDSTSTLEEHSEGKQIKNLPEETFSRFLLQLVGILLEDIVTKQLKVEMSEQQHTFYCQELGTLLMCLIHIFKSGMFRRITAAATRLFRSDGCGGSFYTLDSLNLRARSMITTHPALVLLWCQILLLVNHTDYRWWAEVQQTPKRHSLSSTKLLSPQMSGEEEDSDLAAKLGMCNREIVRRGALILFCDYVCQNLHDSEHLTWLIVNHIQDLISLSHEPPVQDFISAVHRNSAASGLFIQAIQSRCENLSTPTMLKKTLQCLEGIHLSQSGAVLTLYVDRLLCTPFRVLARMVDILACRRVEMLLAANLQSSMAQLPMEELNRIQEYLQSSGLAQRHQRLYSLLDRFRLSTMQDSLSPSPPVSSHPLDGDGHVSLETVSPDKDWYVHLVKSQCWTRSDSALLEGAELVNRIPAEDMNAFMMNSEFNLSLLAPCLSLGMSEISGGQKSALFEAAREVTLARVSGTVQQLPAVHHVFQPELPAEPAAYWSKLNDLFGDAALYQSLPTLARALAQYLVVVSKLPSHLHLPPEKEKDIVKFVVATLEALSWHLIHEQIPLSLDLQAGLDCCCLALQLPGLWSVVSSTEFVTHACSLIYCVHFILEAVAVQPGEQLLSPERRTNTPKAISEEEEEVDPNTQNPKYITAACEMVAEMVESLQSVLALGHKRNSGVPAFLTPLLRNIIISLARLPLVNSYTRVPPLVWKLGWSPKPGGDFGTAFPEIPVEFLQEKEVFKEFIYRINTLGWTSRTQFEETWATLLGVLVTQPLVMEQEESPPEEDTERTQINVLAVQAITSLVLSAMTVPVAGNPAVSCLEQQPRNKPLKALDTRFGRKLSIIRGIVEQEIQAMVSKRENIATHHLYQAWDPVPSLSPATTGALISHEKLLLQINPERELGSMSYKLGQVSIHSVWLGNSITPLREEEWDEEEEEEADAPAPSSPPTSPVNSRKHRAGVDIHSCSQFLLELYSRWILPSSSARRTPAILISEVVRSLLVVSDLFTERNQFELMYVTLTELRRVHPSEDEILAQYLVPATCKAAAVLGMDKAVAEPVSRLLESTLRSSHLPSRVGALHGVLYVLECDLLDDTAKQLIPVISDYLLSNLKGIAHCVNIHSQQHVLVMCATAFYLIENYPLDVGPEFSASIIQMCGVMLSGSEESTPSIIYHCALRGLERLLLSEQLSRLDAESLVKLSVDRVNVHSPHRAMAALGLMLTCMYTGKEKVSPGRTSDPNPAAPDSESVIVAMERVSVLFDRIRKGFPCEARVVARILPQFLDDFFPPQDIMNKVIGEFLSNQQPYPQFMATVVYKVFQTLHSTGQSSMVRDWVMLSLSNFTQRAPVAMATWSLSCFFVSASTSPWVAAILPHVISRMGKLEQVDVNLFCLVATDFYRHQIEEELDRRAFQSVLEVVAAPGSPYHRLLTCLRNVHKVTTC
Method in brief: as §1

Measured: binding result

Sequence of DPP9 (Q86TI2 2-863 limits assumed): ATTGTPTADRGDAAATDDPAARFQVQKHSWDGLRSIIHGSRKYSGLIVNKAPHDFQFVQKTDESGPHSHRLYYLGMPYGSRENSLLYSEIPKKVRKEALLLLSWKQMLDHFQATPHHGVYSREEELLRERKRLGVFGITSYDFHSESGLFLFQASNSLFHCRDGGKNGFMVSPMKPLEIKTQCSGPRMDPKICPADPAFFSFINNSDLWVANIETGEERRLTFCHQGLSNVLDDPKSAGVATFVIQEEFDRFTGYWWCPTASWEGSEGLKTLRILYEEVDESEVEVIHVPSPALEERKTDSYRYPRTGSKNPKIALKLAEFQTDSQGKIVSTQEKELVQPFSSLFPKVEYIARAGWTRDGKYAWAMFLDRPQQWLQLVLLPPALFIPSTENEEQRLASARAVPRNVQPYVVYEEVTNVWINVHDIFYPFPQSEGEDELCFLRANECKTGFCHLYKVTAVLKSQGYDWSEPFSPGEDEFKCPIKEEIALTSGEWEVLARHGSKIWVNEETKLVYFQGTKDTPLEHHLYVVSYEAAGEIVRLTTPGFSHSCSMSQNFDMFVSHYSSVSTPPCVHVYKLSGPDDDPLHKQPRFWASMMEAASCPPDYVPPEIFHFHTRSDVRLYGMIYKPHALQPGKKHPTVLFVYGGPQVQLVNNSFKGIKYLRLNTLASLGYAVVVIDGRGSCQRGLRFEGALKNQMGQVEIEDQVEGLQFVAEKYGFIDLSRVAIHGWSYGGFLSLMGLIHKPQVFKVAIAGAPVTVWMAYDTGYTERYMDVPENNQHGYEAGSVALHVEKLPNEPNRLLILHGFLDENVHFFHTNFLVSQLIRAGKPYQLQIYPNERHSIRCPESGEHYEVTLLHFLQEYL

B1: LZTR1-FLAG (other, human, UniProt Q8N653 1-840, looked up)
chain: MAGPGSTGGQIGAAALAGGARSKVAPSVDFDHSCSDSVEYLTLNFGPFETVHRWRRLPPCDEFVGARRSKHTVVAYKDAIYVFGGDNGKTMLNDLLRFDVKDCSWCRAFTTGTPPAPRYHHSAVVYGSSMFVFGGYTGDIYSNSNLKNKNDLFEYKFATGQWTEWKIEGRLPVARSAHGATVYSDKLWIFAGYDGNARLNDMWTIGLQDRELTCWEEVAQSGEIPPSCCNFPVAVCRDKMFVFSGQSGAKITNNLFQFEFKDKTWTRIPTEHLLRGSPPPPQRRYGHTMVAFDRHLYVFGGAADNTLPNELHCYDVDFQTWEVVQPSSDSEVGGAEVPERACASEEVPTLTYEERVGFKKSRDVFGLDFGTTSAKQPTQPASELPSGRLFHAAAVISDAMYIFGGTVDNNIRSGEMYRFQFSCYPKCTLHEDYGRLWESRQFCDVEFVLGEKEECVQGHVAIVTARSRWLRRKITQARERLAQKLEQEAAPVPREAPGVAAGGARPPLLHVAIREAEARPFEVLMQFLYTDKIKYPRKGHVEDVLLIMDVYKLALSFQLCRLEQLCRQYIEASVDLQNVLVVCESAARLQLSQLKEHCLNFVVKESHFNQVIMMKEFERLSSPLIVEIVRRKQQPPPRTPLDQPVDIGTSLIQDMKAYLEGAGAEFCDITLLLDGHPRPAHKAILAARSSYFEAMFRSFMPEDGQVNISIGEMVPSRQAFESMLRYIYYGEVNMPPEDSLYLFAAPYYYGFYNNRLQAYCKQNLEMNVTVQNVLQILEAADKTQALDMKRHCLHIIVHQFTKVSKLPTLRSLSQQLLLDIIDSLASHISDKQCAELGADI
notes: Expressed in HEK 293T, HeLa or U87 cells; used as cell lysate; also called LZTR1 wild type-FLAG; LZTR1 WT; not shown: FLAG tag at the C-terminus
binds: all assays above

From US20250262210A1 (TRUSTEES OF COLUMBIA UNIVERSITY IN THE CITY OF NEW YORK, published 2025)
